Test results as given in patent publication US20240240209A1, “SYNTHESIS OF ENANTIOPURE CIS-A-IRONE FROM A RENEWABLE CARBON SOURCE” (Agency for Science, Technology and Research, priority 2021, published 2024).
Positions count from the first letter of the chain named. Names may count otherwise. “Also recorded” adds a separate entry of the source.

B1: H123Q (protein)
chain: MPQEARTPQQQVTADEVGDWYDKFGEVYHLTLGESVHCGLWFPPDAPVPQDMELVTMSSQAQDRFTDYLIETLDPKAGQHLLDIGCGTGRPALKAARQRGIAVTGVAVSKEQIAAANRLAAGQGLTERLTFEVADAMRLPYEDESFDCAWAIESLDHMDRAKALGEAWRVLKPGGDLLVAEEVVTEELTEPETALFETLFALNVPPRLGEFFDIVSGAGFHTLSLKDLSADLAMTMNVFALGVYSRRAEFTERFGAEFVDGLLAGLGSAQETVIRKTRFFMATLRKPAV
modifications: Modified from pMT1
B2: D176R (protein)
chain: B1 chain with Q123H, D176R
modifications: Modified from pMT1
B3: E127G (protein)
chain: B1 chain with Q123H, E127G
modifications: Modified from pMT1
B4: V12A (protein)
chain: B1 chain with V12A, Q123H
modifications: Modified from pMT1
B5: Q11W (protein)
chain: B1 chain with Q11W, Q123H
modifications: Modified from pMT1
B6: T126S (protein)
chain: B1 chain with Q123H, T126S
modifications: Modified from pMT1
B7: T13L (protein)
chain: B1 chain with T13L, Q123H
modifications: Modified from pMT1
B8: T13Q (protein)
chain: B1 chain with T13Q, Q123H
modifications: Modified from pMT1
B9: D176L: pMT12 with D176L (protein)
chain: B1 chain with Q123H, D176L
modifications: Modified from pMT1
B10: P191K (protein)
chain: B1 chain with Q123H, P191K
modifications: Modified from pMT1
B11: D159L (protein)
chain: B1 chain with Q123H, D159L
modifications: Modified from pMT1
B12: T126E (protein)
chain: B1 chain with Q123H, T126E
modifications: Modified from pMT1
B13: E190Q (protein)
chain: B1 chain with Q123H, E190Q
modifications: Modified from pMT1
B14: P191I (protein)
chain: B1 chain with Q123H, P191I
modifications: Modified from pMT1
B15: P191L (protein)
chain: B1 chain with Q123H, P191L
modifications: Modified from pMT1
B16: H123S (protein)
chain: B1 chain with Q123S
modifications: Modified from pMT1
B17: D176L, A248V: pMT12 with D176L and A248V (protein)
chain: B1 chain with Q123H, D176L, A248V
modifications: Modified from pMT1
B18: D176V (protein)
chain: B1 chain with Q123H, D176V
modifications: Modified from pMT1
B19: T13M (protein)
chain: B1 chain with T13M, Q123H
modifications: Modified from pMT1
B20: V12K (protein)
chain: B1 chain with V12K, Q123H
modifications: Modified from pMT1
B21: L129K (protein)
chain: B1 chain with Q123H, L129K
modifications: Modified from pMT1
B22: P191V (protein)
chain: B1 chain with Q123H, P191V
modifications: Modified from pMT1
B23: P191Y (protein)
chain: B1 chain with Q123H, P191Y
modifications: Modified from pMT1
B24: D176K (protein)
chain: B1 chain with Q123H, D176K
modifications: Modified from pMT1
B25: E190P, G122S (protein)
chain: B1 chain with G122S, Q123H, E190P
B26: V12G (protein)
chain: B1 chain with V12G, Q123H
modifications: Modified from pMT1
B27: L129C (protein)
chain: B1 chain with Q123H, L129C
modifications: Modified from pMT1
B28: Q11H (protein)
chain: B1 chain with Q11H, Q123H
modifications: Modified from pMT1
B29: Q60K (protein)
chain: B1 chain with Q60R, P91T, Q123H, D156C, D231N
modifications: Modified from pMT1
B30: Q60R (protein)
chain: B1 chain with Q11H, Q123H
modifications: Modified from pMT1
B31: D176Y (protein)
chain: B1 chain with Q123H, D176Y
modifications: Modified from pMT1

Test: In-vivo cis-α-irone production screening of pMT7 and pMT12 mutants
Assay type: cell-based, Escherichia coli
Settings: mutations made to pMT12; normalized to pMT12 (=1)
Excerpt: Q60 was identified as another possible mutation site.
FIGS. 24a and 24b show the in-vivo and in-vitro cis-α-irone production of other possible single mutations to pMT12. The in-vitro results in FIG. 24b validate the mutations and in-vivo results in FIG. 24a. The mutations in FIG. 24 include Q11H (SEQ ID No. 23), V12R (SEQ ID No. 24), A95C (SEQ ID No. 25), H123Q (SEQ ID No. 26), E127T (SEQ ID No. 27), M137T (SEQ ID No. 28), D176V (SEQ ID No. 29), D176Y (SEQ ID No. 30). P191S (SEQ ID No. 31), P191V (SEQ ID No. 32), F212L (SEQ ID No. 33), S268H (SEQ ID No. 34), AND T272A (SEQ ID No. 35). The screening results in FIGS. 24 and 25 are semi-quantitative to identify beneficial mutants that give greater than one-fold change of irone production as compared to pMT12.
FIGS. 25a to 25c (and Table 4) show the in-vivo testing results of other possible mutations that may be made to pMT12 to improve its in-vivo production of cis-α-irone. FIGS. 25a to 25c each include two dotted lines to account for a 10% error bar to show the normalized fold change of 0.9 and 1.1.
The four plasmids were transformed into E. coli BL21 (DE3), ΔaroA, ΔaroB, ΔaroC, ΔserC or E. coli BL21 (DE3), ΔaroA, ΔaroB, ΔaroC, ΔserC, ΔmetJ strains and plated on Agar plate containing LB media (10 g, tryptone. 5 g, yeast extract. 10 g, NaCl) supplemented with appropriate antibiotics (100 mg/L ampicillin, 34 mg/L chloramphenicol, 50 mg/L kanamycin, and 100 mg/L spectinomycin). One colony was picked and inoculate into LB media with antibiotics. 1% of overnight culture was inoculated into 1 ml fresh auto-inducing chemically defined media. The chemical media contains carbon source solution: 0.5 g/L glucose, 10 g/L glycerol; inducer: 30 mM lactose and base media: 2 g/L ammonium sulfate, 4.2 g/L KH2PO4, 11.24 g/L K2HPO4, 1.7 g/L citric acid, 0.5 g/L MgSO4, and 10 mL/L trace element solution. The trace element solution (100×) contained 0.25 g/L CoCl2·6H2O, 1.5 g/L MnSO4·4H2O, 0.15 g/L CuSO4·2H2O, 0.3 g/L H3BO3, 0.25 g/L Na2MoO4·2H2O, 0.8 g/L Zn(CH3COO)2, 5 g/L Fe(III) citrate, and 0.84 g/L ethylenediaminetetra-acetic acid (EDTA) at pH 8.0. The culture was grown at 28° C. for 3 days and the products were extracted with 1 ml hexane for GCMS analysis. An example of a fed-batch process for α-ionone Is briefly described, overnight culture was inoculated into 2 L chemical media comprising the base media and 5 g/L glucose, at 37° C. and 30% DO. pH was controlled at 7 with base solution (14% ammonia and 0.5 M NaOH). Feed media (500 g/L glucose and 5 g/L MgSO4) was added into bioreactor once OD600 reached 5, at a rate of 7.15-25.75 g/h glucose for about 4-5 h until OD600 reached ˜30-40. Subsequently, 0.1 mM IPTG was added to induce the production, and feeding rate was kept at a constant rate of 10 g/h glucose, and the temperature was reduced to 30° C. DO was adjusted to 2% or 10%. Feeding was stopped at 113 h when 2 L feeding media was finished, but the culture was further incubated for 24 h. To capture the evaporated products, the exhaust was connected to 25 ml sunflower oil.
In the case of B1, the “Fold change in in-vivo cis-α-irone production” value (“Fold change” for short) is reported as 0.87.
In the case of B2, the “Fold change” value is reported as 1.80.
In the case of B3, the “Fold change” value is reported as 0.98.
For B4, the “Fold change” value was 0.97.
For B5, the “Fold change” value was 0.90.
With B6 the “Fold change” value was 0.96.
In the case of B7, the “Fold change” value is reported as 0.97.
For B8, the “Fold change” value was 0.93.
With B9 the “Fold change” value was 2.52.
With B10 the “Fold change” value was 1.26.
With B11 the “Fold change” value was 1.55.
In the case of B12, the “Fold change” value is reported as 0.88.
For B13, the “Fold change” value was 2.90.
With B14 the “Fold change” value was 1.31.
For B15, the “Fold change” value was 1.12.
With B16 the “Fold change” value was 0.84.
In the case of B17, the “Fold change” value is reported as 3.14.
With B18 the “Fold change” value was 2.24.
For B19, the “Fold change” value was 0.97.
With B20 the “Fold change” value was 1.00.
With B21 the “Fold change” value was 1.00.
In the case of B22, the “Fold change” value is reported as 1.26.
In the case of B23, the “Fold change” value is reported as 1.29.
With B24 the “Fold change” value was 1.90.
In the case of B25, the “Fold change” value is reported as 1.02.
For B26, the “Fold change” value was 0.97.
With B27 the “Fold change” value was 1.08.

Same assay, conditions: single mutations vs parent (pMT7 or pMT12)
For B28, the “in-vivo production of cis-α-irone (in words)” value (“in-vivo production” below) was “significant increase”.
With B2 the “in-vivo production” value was “significant improvement”.
With B29 the “in-vivo production” value was “increased cis-α-irone production in-vivo”.
For B9, the “in-vivo production” value was “significant improvement”.
With B11 the “in-vivo production” value was “significant improvement”.
With B13 the “in-vivo production” value was “significant improvement”.
For B17, the “in-vivo production” value was “significant improvement”.
For B18, the “in-vivo production” value was “significant increase; also recorded: significant improvement”.
For B30, the “in-vivo production” value was “increased cis-α-irone production in-vivo”.
In the case of B22, the “in-vivo production” value is reported as “significant increase”.
In the case of B24, the “in-vivo production” value is reported as “significant improvement”.
In the case of B31, the “in-vivo production” value is reported as “significant increase”.
